19 molecules from patent US9012420B2, “Aptamer for chymase, and use thereof” (Ribomic Inc., priority 2009, dated 2015) can be followed below.

Series [1] addresses T1, chymase (recombinant) (UniProt P23946 P23946:22-247).
T1 sequence: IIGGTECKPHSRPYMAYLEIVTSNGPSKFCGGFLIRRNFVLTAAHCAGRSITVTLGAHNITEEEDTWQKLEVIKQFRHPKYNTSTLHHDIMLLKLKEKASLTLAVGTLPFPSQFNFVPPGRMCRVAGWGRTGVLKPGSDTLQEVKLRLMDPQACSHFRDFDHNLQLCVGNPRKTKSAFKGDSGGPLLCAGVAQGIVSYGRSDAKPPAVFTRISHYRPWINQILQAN
As to the kind of experiment: inhibition; SPR ++. The settings on record: tags: SIGMA, expressed in yeast. The procedure: (§1) By detecting the fluorescence of this AMC, the enzyme activity of chymase can be determined. The assay was performed using a 96-well plate (F16 Black Maxisorp Fluoronunc, manufactured by Nunc), with a reaction mixture volume of 100 μL, in solution C as a buffer solution. First, each nucleic acid was serially diluted to 0.0027-2 μM concentrations in solution C to obtain 50 μL solutions. After 10 μL of the 1 mM substrate prepared in solution C was added thereto, the plate was set to the microplate reader SpectraMax190 (manufactured by Molecular Devices Corporation), and incubated at 37° C. for 5 minutes. Separately, 0.05 μg (or 0.005 μg) of chymase (recombinant, manufactured by SIGMA) was diluted in solution C to obtain a 40 μL chymase solution, and incubated at 37° C. for 5 minutes. The chymase solution was added to the mixture of the nucleic acid and substrate to initiate an enzyme reaction. The final chymase concentration in the reaction mixture was 16.7 nM (or 1.67 nM), the final substrate concentration being 100 μM. The plate containing the reaction mixture was set to the microplate reader SpectraMax190 (manufactured by Molecular Devices Corporation), and examined for time-dependent changes in the fluorescence intensity at 37° C. for 5 minutes (or 30 minutes) (excitation wavelength 380 nm, detection wavelength 460 nm). A linear approximation of the increase in the fluorescence of the AMC released from the substrate by chymase activity was generated, and its slope was taken as the initial velocity […]. For control, samples were treated and analyzed in the same manner in two cases: use of a 30N or 40N (a nucleotide of 30 or 40 consecutive bases represented by N; N is A, G, C or T) nucleic acid pool (negative control), and use of chymostatin, a known chymotrypsin-like serine protease inhibitor (positive control). Taking the initial reaction velocity without the nucleic acid and inhibitor (V_0) as a 100% enzyme activity, the inhibitory rate of each test substance was calculated using the following equation: […]
All nucleic acids of SEQ ID NO: 58-68 were prepared by chemical synthesis. Whether these nucleic acids are bound to chymase was assessed by surface plasmon resonance method in the same manner as in Example 4. The inhibitory activity on chymase was measured in the same manner as in Example 3.

Another series addresses T2, chymase (Homo sapiens, UniProt P23946 P23946:22-247).
T2 sequence: T1 sequence
In words: SPR; stronger than 40N; solution A. The settings on record: tags: human skin mast cell, Calbiochem. The protocol:
(§2) The binding activities against chymase of the nucleic acids shown by SEQ ID NO: 4-20 and 22-34 were determined by the surface plasmon resonance method using Biacore T100 (manufactured by GE Healthcare). The sensor chip used was the SA chip, which had streptavidin immobilized thereon. Bound thereto was about 1500 RU of a 16-nucleotide Poly dT with biotin bound to the 5' end thereof. […] 20 μL of chymase for analyte, prepared at 0.2 μM, was injected. Solution A was used as a running buffer.
On the technique in general: SPR reads the build-up and loss of mass on a sensor chip optically.

Series [2] concerns the target T1, chymase (recombinant). As to the kind of experiment: inhibition; SPR not determined. The settings on record: tags: SIGMA, expressed in yeast. The procedure:
Here, Suc is a protecting succinyl group, and MCA is a 4-methylcoumaryl-7-amide group; upon cleavage of the C-terminal side of phenylalanine, AMC (7-amino-4-methyl-coumarine) is released. By detecting the fluorescence of this AMC, the enzyme activity of chymase can be determined. The assay was performed using a 96-well plate (F16 Black Maxisorp Fluoronunc, manufactured by Nunc), with a reaction mixture volume of 100 μL, in solution C as a buffer solution. First, each nucleic acid was serially diluted to 0.0027-2 μM concentrations in solution C to obtain 50 μL solutions. After 10 μL of the 1 mM substrate prepared in solution C was added thereto, the plate was set to the microplate reader SpectraMax190 (manufactured by Molecular Devices Corporation), and incubated at 37° C. for 5 minutes. […] The plate containing the reaction mixture was set to the microplate reader SpectraMax190 (manufactured by Molecular Devices Corporation), and examined for time-dependent changes in the fluorescence intensity at 37° C. for 5 minutes (or 30 minutes) (excitation wavelength 380 nm, detection wavelength 460 nm). A linear approximation of the increase in the fluorescence of the AMC released from the substrate by chymase activity was generated, and its slope was taken as the initial velocity ($Vmax$). […]
The inhibitory activity on chymase was measured in the same manner as in Example 3.

For series [3], the target named is T1, chymase (recombinant). In words: SPR; stronger than 30N; solution C; chymase preparation for SPR not specified. The settings on record: tags: SIGMA, expressed in yeast. The protocol:
as §2
The binding activities against chymase of the nucleic acids shown by SEQ ID NO: 38-48 were evaluated by the surface plasmon resonance method. In the evaluations for SEQ ID NO: 38-48, measurements were taken in the same manner as Example 1. Solution C was used as a running buffer.

In series [4] the target is T1, chymase (recombinant). As to the kind of experiment: inhibition; SPR not determined. The settings on record: tags: SIGMA, expressed in yeast. The protocol: as §1, with “Here, Suc is a protecting succinyl group, and MCA is a 4-methylcoumaryl-7-amide group; upon cleavage of the C-terminal side of phenylalanine, AMC (7-amino-4-methyl-coumarine) is released. By” for “By”, “The chymase solution was added to the mixture of the nucleic acid and substrate to initiate an enzyme reaction. The final chymase concentration in the reaction mixture was 16.7 nM (or 1.67 nM), the final substrate concentration being 100 μM.” left out
(§3) The chymase inhibitory activity was measured in the same manner as in Example 3.
This is another data set of the same source.

Series [5] has as its target T1, chymase (recombinant). As to the kind of experiment: inhibition; SPR ++. The settings on record: tags: SIGMA, expressed in yeast. The procedure: as §1, with “Here, Suc is a protecting succinyl group, and MCA is a 4-methylcoumaryl-7-amide group; upon cleavage of the C-terminal side of phenylalanine, AMC (7-amino-4-methyl-coumarine) is released. By” for “By”
The source holds these as a separate data set.

The target in series [6] is T3, chymase (native, human skin mast cell) (Homo sapiens, UniProt P23946 P23946:22-247).
T3 sequence: T1 sequence
In words: inhibition; angiotensin I substrate; recombinant 0.041 uM. The settings on record: tags: Calbiochem. The procedure: (§4) The total volume of solution for an enzyme reaction in the assay was set to 50 μL, and the reaction was performed in solution C buffer. First, 0.3-0.75 ng of chymase (recombinant, (manufactured by SIGMA) or native (manufactured by Calbiochem)) was diluted with solution C to give 5 μL thereof. Here, the recombinant is chymase expressed by yeast, and the native is chymase purified from human skin mast cell. The nucleic acid was serially diluted with solution C at a concentration of 0.0027-2 μM to give 25 μL thereof. The chymase solution (5 μL) and the nucleic acid solution (25 μL) were mixed, and the mixture was incubated at 37° C. for 5 min. […] The whole mixture was centrifuged at 4° C., 14000 rpm for 10 min, and the supernatant (30 μL) was used for the next fluorescence induction reaction.
(§5) The above-mentioned supernatant (30 μL) was added to a 96 well plate (black, manufactured by Costar), a solution (15 μL) of 2% o-phthalaldehyde (manufactured by SIGMA) in methanol and 0.3M NaOH solution (170 μL) were added to each well, and the mixture was incubated at room temperature for 10 min. […] The plate was set on a microplate reader SpectraMax190 (manufactured by Molecular device) and the fluorescence intensity was measured at an excitation wavelength of 355 nm and a fluorescence wavelength of 460 nm.

Series [7] concerns the target T1, chymase (recombinant). In words: inhibition; SPR ++. The settings on record: tags: SIGMA, expressed in yeast. The protocol: as §1, with “Here, Suc is a protecting succinyl group, and MCA is a 4-methylcoumaryl-7-amide group; upon cleavage of the C-terminal side of phenylalanine, AMC (7-amino-4-methyl-coumarine) is released. By” for “By”
as §3
The source holds these as a separate data set.

The target in series [8] is T3, chymase (native, human skin mast cell). As to the kind of experiment: inhibition; angiotensin I substrate; recombinant 0.037 uM. The settings on record: tags: Calbiochem. The procedure: as §4, §5

In the case of GGGUUAGAUAGAUUUAAAAACCC (ssRNA, 2'-F pyrimidines) [SEQ 61], in the series with chymase (recombinant) [1], the IC50 (commonly the concentration at which inhibition is half-maximal) turned out to be 23 nM.

B1: SEQ 29 (ssRNA)
RNA: GGGACGGUAGGAAUUCACGACCGCCCAAAAAAUGGUGACAUUUUAGAAACACCGAACAUAGAAGAGCGGCCGC
modifications: 2'-F U and C
For the molecule B1, the binding result with chymase was “binds”. In the case of GGCAGAUAGAGUUAAAGCC (ssRNA, 2'-F pyrimidines) [SEQ 65], in the series with chymase (recombinant) [1], the IC50 was 56 nM. The same measure, in the same setting: to GGGUUGGAUAGAGUUAAGAACCC (ssRNA, 2'-F pyrimidines) [SEQ 62] belongs 29 nM; to GGGUUAGAUAGAGAUAAAAACCC (ssRNA, 2'-F pyrimidines) [SEQ 59], 38 nM.

B2: SEQ 7 (ssRNA)
RNA: GGGACGGUAGGAAUUCACCUUUCCAAUUGUGAAAGAAACACAAAAAGAAAUGACAUCAUAGAAGAGCGGCCGC
modifications: 2'-F U and C
Take B2: the binding result with chymase is recorded as “binds”. With GGGUUAGAUAGAGUUAAAAACCC (ssRNA, 2'-F pyrimidines; 5' 40 kDa branched PEG; 3' idT) [56(17)], the IC50 in the series with chymase (recombinant) [2] worked out at 58 nM. Take GUCACAGAUAGAGUUAAAGUGAC (ssRNA, 2'-F pyrimidines) [SEQ 64]: in the series with chymase (recombinant) [1], the IC50 was 20 nM. GGGUUAGAUAGAGCUAAAAACCC (ssRNA, 2'-F pyrimidines) [SEQ 60]: the IC50 in the series with chymase (recombinant) [1] was determined as 26 nM.

B3: SEQ 27 (ssRNA)
RNA: GGGACGGUAGGAAUUCCGUCAUCGGUUGCAAAUUGAAAAUACAAAACAAGGACAACCAUAGAAGAGCGGCCGC
modifications: 2'-F U and C
B3: the binding result with chymase was “binds”.

B4: SEQ 10 (ssRNA)
RNA: GGGACGGUAGGAAUUCCGCCGCCUAAAAAACGACGAUAUUACAGAAACGUCAAAUACAUAGAAGAGCGGCCGC
modifications: 2'-F U and C
For B4, the binding result with chymase is “binds”.

B5: SEQ 39 (ssRNA)
RNA: GGGAGCAGGAGAGAGGUCAGAUGGUUACGGAUAGAGUUAAGGUAACGGUACGGCCUAUGCGUGCUAGUGUGA
modifications: 2'-F pyrimidines
In the case of B5, the binding result with chymase (recombinant) [3] is listed as “binds”.

B6: 72(8) (mixed)
mixed: GGGTTAGAUAGAGTUAAAAACCC
modifications: B-idT-G(M)G(M)G(M)ttAG(M)aU(F)A(M)GAG(M)tU(F)A(M)A(M)A(M)A(M)A(M)ccc-idT (lower case DNA, B=biotin)
With B6, in the series with chymase (recombinant) [4] (label: biotin), the IC50 was determined as 18 nM.

B7: SEQ 13 (ssRNA)
RNA: GGGACGGUAGGAAUUCCGCAACCAUCCCGUAACUAUGGUUAGAUAGAGUUAAAAACCAUAGAAGAGCGGCCGC
modifications: 2'-F pyrimidines
B7: the figures for the IC50 (with chymase (recombinant) [5]; in series [6]) were 58 nM and 74 nM, respectively.

B8: 72(2) (mixed)
mixed: GGGTTAGAUAGAGTUAAAAACCC
modifications: idT-G(M)G(M)G(M)ttAsG(M)aU(F)A(M)GAG(M)tU(F)A(M)A(M)A(M)A(M)A(M)ccc-idT (lower case DNA, s=PS)
For B8, the IC50 is 14 nM with chymase (recombinant) [7] and 76 nM in series [8]. As to GCUACAGAUAGAGUUAAAGUAGC (ssRNA, 2'-F pyrimidines) [SEQ 63], the 50% inhibitory concentration (IC50) with chymase (recombinant) [1] is 23 nM.

B9: 56(27) (ssRNA)
RNA: GGGUUAGAUAGAGUUAAAAACCC
modifications: PEG-G(M)G(M)G(M)U(F)U(F)AG(M)A(M)U(F)A(M)GAG(M)U(F)U(F)A(M)A(M)A(M)A(M)A(M)C(F)C(F)C(F)-idT (M=2'-OMe, F=2'-F)
As to B9, the half-inhibitory concentration (IC50) with chymase (recombinant) [4] worked out at 84 nM.

B10: SEQ 16 (ssRNA)
RNA: GGGACGGUAGGAAUUCCCAUGACUGAAAAACGUCAGUAAAAUCCGAAAAUCAUAUCAUAGAAGAGCGGCCGC
modifications: 2'-F U and C
For B10, in the series with chymase, the binding result is “binds”.

B11: SEQ 69 (ssRNA)
RNA: AAAGGGUUAGAUAGAGUUAAAAACCC
modifications: PEG-A(M)A(M)A(M)G(M)G(M)G(M)U(F)U(F)AG(M)A(M)U(F)A(M)GAG(M)U(F)U(F)A(M)A(M)A(M)A(M)A(M)C(F)C(F)C(F)-idT (M=2'-OMe, F=2'-F)
For the molecule B11, in the series with chymase (recombinant) [4], the IC50 stood at 91 nM.
